Measured values: article PMC4191077, “Modeling hemoglobin and hemoglobin:haptoglobin complex clearance in a non-rodent species–pharmacokinetic and therapeutic implications” (Frontiers in Physiology, 2014)

Molecular target: T1, Dog haptoglobin (purified) (dog, UniProt P19006 1-83; P19006 85-329)
T1 construct: haptoglobin alpha chain, dog; haptoglobin beta chain, dog; The supplier is named only for the fluorescent labelling; also called dog Hp; source: bought: Lee Biosolutions (St. Louis, Missouri USA); copies: 2 + 2
T1 sequence (looked up) 1: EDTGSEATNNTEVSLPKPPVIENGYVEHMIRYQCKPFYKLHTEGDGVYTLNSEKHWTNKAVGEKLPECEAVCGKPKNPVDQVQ
T1 sequence (looked up) 2: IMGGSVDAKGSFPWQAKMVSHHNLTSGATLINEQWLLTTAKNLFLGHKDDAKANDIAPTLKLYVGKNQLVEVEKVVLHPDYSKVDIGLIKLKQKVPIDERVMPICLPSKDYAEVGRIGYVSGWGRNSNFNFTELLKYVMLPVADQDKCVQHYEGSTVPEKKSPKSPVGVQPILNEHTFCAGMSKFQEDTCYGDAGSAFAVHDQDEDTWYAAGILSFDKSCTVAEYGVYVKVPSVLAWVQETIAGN
Assay: SEC; purified standards of Hb and Hb:Hp complexes on a BioSep-SEC-S3000 column (600 x 7.5 mm), detection at 405 nm
Conditions: both partners purified

B1: Dog hemoglobin (natural protein)
chain 1: not shown
chain 2: not shown
notes: hemoglobin subunit alpha, dog; hemoglobin subunit beta, dog; also called dog Hb; purified dog Hb; source: prepared using a standardized method previously described (Palmer et al., 2009)
B1: binds.
